# Data from patent publication US20060078562A1, “RAGE fusion proteins and methods of use” (priority 2004, published 2006).
# What was measured:
# [1] = target: Fc receptor on THP-1 cells; assay: cell-based or functional assay
# amyloid-beta (A-beta) = assay: Competition of a RAGE ligand with immobilized amyloid-beta for binding to the fusion protein; conditions: TTP-4000 initial solution diluted 1:10 or 1:30; RAGE ligand FAC 10 μM
# Method: The fusion protein of the present invention may also be used to identify compounds having the ability to bind to RAGE.
# Known RAGE ligands were coated onto the surface of Maxisorb plates at a concentration of 5 micrograms per well. Plates were incubated at 4° C. overnight. Following ligand incubation, plates were aspirated and a blocking buffer of 1% BSA in 50 mM imidizole buffer (pH 7.2) was added to the plates for 1 hour at room temperature. The plates were then aspirated and/or washed with wash buffer (20 mM Imidizole, 150 mM NaCl, 0.05% Tween-20, 5 mM CaCl2 and 5 mM MgCl2, pH 7.2). […] The fusion protein was added at increasing dilutions of the initial sample. The RAGE fusion protein was allowed to incubate with the immobilized ligand at 37° C. for one hour after which the plate was washed and assayed for binding of the fusion protein. Binding was detected by the addition of an immunodetection complex containing a monoclonal mouse anti-human IgG1 diluted 1:11,000 to a final assay concentration (FAC) of 21 ng/100 μL, a biotinylated goat anti-mouse IgG diluted 1:500, to a FAC of […], and an avidin-linked alkaline phosphatase. […] Binding of the complex to the immobilized fusion protein was quantified by measuring conversion of PNPP to para-nitrophenol (PNP) which was measured spectrophotometrically at 405 nm. […]
# [2] = test system: S100b/RAGE-induced production of TNF-α in THP-1 cells; assay: Inhibition of S100b/RAGE-induced production of TNF-α in THP-1 cells; assay type: cell-based; conditions: 10 μg protein
# Method: THP-1 myeloid cells may be cultured in RPMI-1640 media supplemented with 10% FBS and induced to secrete TNF-α via stimulation of RAGE with S100b. When such stimulation occurs in the presence of a RAGE fusion protein, induction of TNF-α by S100b binding to RAGE may be inhibited.
# Previous work has shown that the myeloid THP-1 cells may secrete TNF-α in response to RAGE ligands. In this assay, THP-1 cells were cultured in RPMI-1640 media supplemented with 10% FBS using a protocol provided by ATCC. […] The amount of TNF-α secreted by the THP-1 cells was measured 24 hours after the addition of the proteins to the cell culture using a commercially available ELISA kit for TNF-α (R&D Systems, Minneapolis, Minn.).
# [3] = test system: Zucker diabetic rats, restenosis following vascular injury; assay: Diabetic rat model of restenosis (balloon injury of left common carotid artery); assay type: in vivo; conditions: 4 days after injury; dose-responsive; FIG. 13B
# Method: In these experiments, balloon injury of left common carotid artery was performed in Zucker diabetic and nondiabetic rats using standard procedure. […] A maintenance dose was delivered every other day until day 7 after injury (i.e., at day 1, 3, 5 and 7 after injury). The maintenance dose was high=1 mg/animal for one group, or low=0.3 mg/animal for the second group. To measure vascular smooth muscle cell (VSMC) proliferation, animals were sacrificed at 4 days and 21 days after injury. For the measurement of cell proliferation, 4 day animals received intraperitoneal injection of bromodeoxyuridine (BrDdU) 50 mg/kg at 18, 12, and 2 hours before euthanasia. After sacrifice, the entire left and right carotid arteries were harvested. Specimens were stored in Histochoice for at least 24 hours before embedding. Assessment of VSMC proliferation was performed using mouse anti-BrdU monoclonal antibody. A fluorescence labeled goat anti-mouse secondary antibody was applied. The number of BrdU-positive nuclei per section were counted by two observers blinded to the treatment regimens. The remaining rats were sacrificed at 21 days for morphometric analysis. […] All data were expressed as mean±SD. […]
# [4] = test system: male C57BL/6 mice, cerebral ischemia; assay: Mouse model of stroke (cerebral ischemia and reperfusion, infarct); assay type: in vivo; conditions: treated just prior to reperfusion
# Method: For example, the RAGE fusion proteins of the present invention may also be used to treat stroke. […] In this model, the […] of a mouse is ligated and then reperfused to form an infart. To assess the efficacy of RAGE fusion proteins to treat or prevent stroke, mice were treated with sRAGE or TTP-4000 or control immunoglobulin just prior to reperfusion.
# TTP-4000 was also compared to sRAGE in a disease relevant animal model of stroke. In this model, the […] of a mouse was ligated for 1 hour followed by 23 hours of reperfusion at which point the mice were sacrificed and the area of the infarct in the brain was assessed. […] After the nylon suture had been in place for 1 hour, the animal was re-anesthetized, rectal temperature was recorded and the suture was removed and the incision closed.
# Infarct volume was determined by anesthetizing the animals with an intraperitoneal injection of sodium pentobarbital (50 mg/kg) and then removing the brains. […] The infarct area in each section was determined with a computer-assisted image analysis system, consisting of a Power Macintosh computer equipped with a Quick Capture frame grabber card, Hitachi CCD camera mounted on a camera stand. […] The images were captured and the total area of infarct was determined over the sections. […] Summing the infarct volumes of the sections calculated the total infarct volume. […]
Molecule,"TNF secreted by THP-1 cells in wells precoated with 10 ug/well heat aggregated human IgG1, 24 hours [1]",binding of fusion protein to immobilized amyloid-beta blocked by the RAGE ligand (amyloid-beta (A-beta)),blocking S100b induction of TNF-α compared with sRAGE [2],vascular smooth muscle cell proliferation (number of BrdU proliferating cells) [3],reduction in infarct volume compared to sRAGE [4]
human IgG1 (heat aggregated) (antibody),> 40 ng/well,,,,
"TTP-4000: four domain RAGE-IgG Fc fusion protein, SEQ ID NO: 32: human RAGE amino acids 1-251 linked to CH2 and CH3 domains of human IgG (protein, listed as Homo sapiens) MAAGTAVGAWALVLSLWGAVVGAQNITARIGEPLVLKCKGAPKKPPQRLEWKLNTGRTEAWKVLSPQGGGPWDSVARVLPNGSLFLPAVGIQDEGIFRCQAMNRNGKETKSNYRVRVYQIPGKPEIVDSASELTAGVPNKVGTCVSEGSYPAGTLSWHLDGKPLVPNEKGVSVKEQTRRHPETGLFTLQSELMVTPARGGDPRPTFSCSFSPGLPRHRALRTAPIQPRVWEPVPLEEVQLVVEPEGGAVAPPSVFLFPPKPKDTLMISRTPEVTCVVVDVSHEDPEVKFNWYVDGVEVHNAKTKPREEQYNSTYRVVSVLTVLHQDWLNGKEYKCKVSNKALPAPIEKTISKAKGQPREPQVYTLPPSRDELTKNQVSLTCLVKGFYPSDIAVEWESNGQPENNYKTTPPVLDSDGSFFLYSKLTVDKSRWQQGNVFSCSVMHEALHNHYTQKSLSLSPGK",,completely inhibited,at least as effective,significantly reduced,significantly greater reduction
